What follows are substances tested against HLA-A*02:01 (Homo sapiens, UniProt P04439, D140Y/D185E/D98H/E176V/E277Q/G131W/G231S/I119V/I121R/I166T/I218V/L300P/L318F/N151K/N90K/P208A/P217A/Q86G/Q94H/R138H/R169H/T345S) (assay: MHC binding assay (UV-ligand exchange, beta2m ELISA, peptide exchange yield)). Details: binding to HLA-A*02:01, β2m ELISA.
Description: Candidate peptides for T cell based therapies according to the present invention were further tested for their MHC binding capacity (affinity). The individual peptide-MHC complexes were produced by UV-ligand exchange, where a UV-sensitive peptide is cleaved upon UV-irradiation, and exchanged with the peptide of interest as analyzed. Only peptide candidates that can effectively bind and stabilize the peptide-receptive MHC molecules prevent dissociation of the MHC complexes. To determine the yield of the exchange reaction, an ELISA was performed based on the detection of the light chain (β2m) of stabilized MHC complexes. The assay was performed as generally described in Rodenko et al. (Rodenko et al., 2006).
96 well MAXISorp plates (NUNC) were coated over night with 2 ug/ml streptavidin in PBS at room temperature, washed 4× and blocked for 1 h at 37° C. in 2% BSA containing blocking buffer. Refolded HLA-A*02:01/MLA-001 monomers served as standards, covering the range of 15-500 ng/ml. Peptide-MHC monomers of the UV-exchange reaction were diluted 100 fold in blocking buffer. Samples were incubated for 1 h at 37° C., washed four times, incubated with 2 ug/ml HRP conjugated anti-β2m for 1 h at 37° C., washed again and detected with TMB solution that is stopped with […]. Absorption was measured at 450 nm. Candidate peptides that show a high exchange yield (preferably higher than 50%, most preferred higher than 75%) are generally preferred for a generation and production of antibodies or fragments thereof, and/or T cell receptors or fragments thereof, as they show sufficient avidity to the MHC molecules and prevent dissociation of the MHC complexes.

Substance	Peptide exchange (MHC class I binding score, peptide exchange yield)
3 (RLIPDTLYSV; listed as Homo sapiens) [compound 3]	“++++” (≥75% = ++++)
4 (RLAELTVDEFL; listed as Homo sapiens) [compound 4]	“+++” (≥50 = +++)
5 (WLFDDGGLTL; listed as Homo sapiens) [compound 5]	“++++” (≥75% = ++++)
6 (FLAELPGSLSL; listed as Homo sapiens) [compound 6]	“+++” (≥50 = +++)
8 (ALMLQGVDLL; listed as Homo sapiens) [compound 8]	“+++” (≥50 = +++)
13 (FLLAEDTKV; listed as Homo sapiens) [compound 13]	“+++” (≥50 = +++)
14 (FLDKPEDVLL; listed as Homo sapiens) [compound 14]	“++” (≥20% = ++)
15 (LQLDKEFQL; listed as Homo sapiens) [compound 15]	“+++” (≥50 = +++)
16 (VLVDQSWVL; listed as Homo sapiens) [compound 16]	“+++” (≥50 = +++)
17 (ALAAARVEL; listed as Homo sapiens) [compound 17]	“+++” (≥50 = +++)
19 (RLYTKLLNEA; listed as Homo sapiens) [compound 19]	“+++” (≥50 = +++)
20 (YLKDGDVML; listed as Homo sapiens) [compound 20]	“+++” (≥50 = +++)
22 (GLIDEVMVL; listed as Homo sapiens) [compound 22]	“+++” (≥50 = +++)
23 (FLDANGHFV; listed as Homo sapiens) [compound 23]	“+++” (≥50 = +++)
24 (VLDGVLMEL; listed as Homo sapiens) [compound 24]	“+++” (≥50 = +++)
25 (SLADRLIGV; listed as Homo sapiens) [compound 25]	“++++” (≥75% = ++++)
26 (GLASKENFSNVSL; listed as Homo sapiens) [compound 26]	“++” (≥20% = ++)
27 (LLADEDSSYL; listed as Homo sapiens) [compound 27]	“++” (≥20% = ++)
28 (ALTEIQEFI; listed as Homo sapiens) [compound 28]	“++++” (≥75% = ++++)
29 (QMLDVAIRV; listed as Homo sapiens) [compound 29]	“+++” (≥50 = +++)
30 (GLSSAYGGL; listed as Homo sapiens) [compound 30]	“+” (≥10% = +)
31 (LLYGKYVSV; listed as Homo sapiens) [compound 31]	“+++” (≥50 = +++)
32 (KLNTETFGV; listed as Homo sapiens) [compound 32]	“++” (≥20% = ++)
33 (ALWEKNTHL; listed as Homo sapiens) [compound 33]	“+++” (≥50 = +++)
34 (ILLEKSVSV; listed as Homo sapiens) [compound 34]	“+++” (≥50 = +++)
35 (KLLDLTVRI; listed as Homo sapiens) [compound 35]	“+++” (≥50 = +++)

Now from value to substance:

Peptide exchange (MHC class I binding score, peptide exchange yield)	Substance
“+++” (≥50 = +++)	36 (GLLESPSIFNFTA; listed as Homo sapiens) [compound 36]
“++” (≥20% = ++)	40 (ALSNVIHKV; listed as Homo sapiens) [compound 40]
“++” (≥20% = ++)	41 (ILDDSFKLL; listed as Homo sapiens) [compound 41]
“++” (≥20% = ++)	43 (TLDAAQPRV; listed as Homo sapiens) [compound 43]
“+++” (≥50 = +++)	44 (SLESKLTSV; listed as Homo sapiens) [compound 44]
“+++” (≥50 = +++)	45 (ALAELLHGA; listed as Homo sapiens) [compound 45]
“+++” (≥50 = +++)	46 (GLDDRYSLV; listed as Homo sapiens) [compound 46]
“++” (≥20% = ++)	48 (FLDASDPAL; listed as Homo sapiens) [compound 48]
“+++” (≥50 = +++)	50 (TLMAEMHVV; listed as Homo sapiens) [compound 50]
“++” (≥20% = ++)	51 (QVWEIQHTV; listed as Homo sapiens) [compound 51]
“++” (≥20% = ++)	52 (ALDSSNSMQTI; listed as Homo sapiens) [compound 52]
“+++” (≥50 = +++)	53 (FLLGSEIKL; listed as Homo sapiens) [compound 53]
“+++” (≥50 = +++)	54 (ALLNGEYLLAA; listed as Homo sapiens) [compound 54]
“++” (≥20% = ++)	56 (VLFTDEGVPKFL; listed as Homo sapiens) [compound 56]
“+++” (≥50 = +++)	57 (NLLEKENYL; listed as Homo sapiens) [compound 57]
“++” (≥20% = ++)	58 (AMADKMDMSL; listed as Homo sapiens) [compound 58]
“++” (≥20% = ++)	60 (VLDEDEPRFL; listed as Homo sapiens) [compound 60]
“+++” (≥50 = +++)	61 (KLLKLFQGV; listed as Homo sapiens) [compound 61]
“++” (≥20% = ++)	62 (YLAPENGYL; listed as Homo sapiens) [compound 62]
“++” (≥20% = ++)	63 (KLFSILSTV; listed as Homo sapiens) [compound 63]
“++” (≥20% = ++)	66 (GLDDGPDFL; listed as Homo sapiens) [compound 66]
“+++” (≥50 = +++)	67 (SLNDLEKDVMLL; listed as Homo sapiens) [compound 67]
“+++” (≥50 = +++)	68 (SILQFVHMV; listed as Homo sapiens) [compound 68]
“++” (≥20% = ++)	69 (GMLNEAEGKAIKL; listed as Homo sapiens) [compound 69]
“+++” (≥50 = +++)	70 (MISELEVRL; listed as Homo sapiens) [compound 70]

Reference: patent US11597752B2, “Peptides and combination of peptides and scaffolds thereof for use in immunotherapy against colorectal carcinoma (CRC) and other cancers” (priority 2015, dated 2023)
